Values quoted from earlier work as cited in PMC5323041.
Like-named read-outs stand apart in the source and are kept apart here.

Assays:
oxytocin (Mus musculus) [1] = biological target: oxytocin (Mus musculus) (UniProt P35454)
oxytocin (Mus musculus) [2] = biological target: oxytocin (Mus musculus) (UniProt P35454); remark: listed apart in the source

Chain of UniProt P35454 (P35454 whole entry, looked up): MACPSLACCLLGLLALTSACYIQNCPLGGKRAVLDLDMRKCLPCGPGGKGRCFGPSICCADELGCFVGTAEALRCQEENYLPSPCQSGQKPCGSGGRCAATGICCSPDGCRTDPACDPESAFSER

Kd (oxytocin (Mus musculus) [1]) [nM]	Kd (oxytocin (Mus musculus) [2]) [nM]	Substance
1		oxytocin receptor (from UniProt P97926)
	25	vasopressin V1a receptor (from UniProt Q62463)
